According to patent publication US20210139569A1 (STRESSMARQ BIOSCIENCES, published 2021):

Tests used:
[1] = target: T1, α-synuclein peptide AA 1-30, BSA conjugate (human, N-terminus conjugated to a C-6 spacer (Ahx), which is conjugated to an N-terminal cysteine; conjugated to BSA); experiment: ELISA on BSA-conjugated peptide (FIG. 10)
T1 construct: also called 1-30aa
Description: (§1) ELISA conditions for epitope mapping: Nunc® MaxiSorp™ 98 well plates ELISA plates were coated with peptide conjugated to BSA at 0.1 μg/well in 100 μl/well CCB (pH 9.6) overnight at 4° C. The plates were then blocked with 3% skim milk powder in PBS for 3 hours at room temperature. 100 μL/well antibody (1 μg/mL) was added and incubated for 1 hour at 37° C. Secondary Antibody 1:10,000 Goat anti-mouse IgG/IgM (H+L)-HRP at 100 uL/well in PBS-Tween for 1 hour at room temperature. All washing steps performed for 30 mins with PBS-Tween. […] Development time: 15 minutes. Plates were read at 450 nm.

[2] = target: T2, α-synuclein peptide AA 21-50, BSA conjugate (human, N-terminus conjugated to a C-6 spacer (Ahx), which is conjugated to an N-terminal cysteine; conjugated to BSA); experiment: ELISA on BSA-conjugated peptide (FIG. 10)
T2 construct: also called 21-50aa
Description: as §1

[3] = target: T3, α-synuclein peptide AA 41-70, BSA conjugate (human, N-terminus conjugated to a C-6 spacer (Ahx), which is conjugated to an N-terminal cysteine; conjugated to BSA); experiment: ELISA on BSA-conjugated peptide (FIG. 10)
T3 construct: also called 41-70aa
Description: as §1

[4] = target: α-synuclein peptide AA 81-110, BSA conjugate (human, N-terminus conjugated to a C-6 spacer (Ahx), which is conjugated to an N-terminal cysteine; conjugated to BSA); experiment: ELISA on BSA-conjugated peptide (FIG. 10)
Description: as §1

[5] = target: α-synuclein peptide AA 121-140, BSA conjugate (human, N-terminus conjugated to a C-6 spacer (Ahx), which is conjugated to an N-terminal cysteine; conjugated to BSA); experiment: ELISA on BSA-conjugated peptide (FIG. 10)
Description: as §1

[6] = target: α-synuclein peptide AA 101-130, BSA conjugate (human, N-terminus conjugated to a C-6 spacer (Ahx), which is conjugated to an N-terminal cysteine; conjugated to BSA); experiment: binding to overlapping peptides (FIG. 10)
α-synuclein peptide AA 101-130, BSA conjugate (human, N-terminus conjugated to a C-6 spacer (Ahx), which is conjugated to an N-terminal cysteine; conjugated to BSA), sequence (peptide, as listed by the source): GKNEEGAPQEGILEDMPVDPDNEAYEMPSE
Description: as §1

α-synuclein peptide AA 81-110, BSA conjugate (human, N-terminus conjugated to a C-6 spacer (Ahx), which is conjugated to an N-terminal cysteine; conjugated to BSA), sequence (peptide, as listed by the source): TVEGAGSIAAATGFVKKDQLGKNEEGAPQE

binding result [1]: no binding (tested: 1 µg/mL antibody)
binding result [2]: no binding (tested: 1 µg/mL antibody)
binding result [3]: no binding (tested: 1 µg/mL antibody)
binding result [4]: no binding (tested: 1 µg/mL antibody)
binding result [5]: no binding (tested: 1 µg/mL antibody)
binding result [6]: binds
B1: monoclonal antibody 2F11 (hybridoma ATCC #PTA-124174) (antibody, V domains shown)
VH: EVQLQQSGAELVRSGASVKLSCTASGFNIKDYYMFWVKQRPEQGLEWIGWNDPENGDTEYAPKFQGKATMTADTSSNTAYLQLSSLTSEDTAVYYCNAWDGNYVMDYWGQGTSVTVSS
VL: QIVLTQSPAIMSASLGERVTMTCTASSSVSSSYLHWYQQKPGSSPKLWIYSTSNLASGVPPRFSGSGSGTSYSLTISSMEAEDAATYYCHQYHRSPPMYTFGGGTKLE
notes: Mouse monoclonal, IgG1 kappa; Used as hybridoma supernatant or Protein G purified; with gold-labelled detection for electron microscopy; also called clone 2F11; 2F11 antibody
